From PMC12085566 come the findings set out here.

The assay deals with BG505 SOSIP.664 Env trimer (HIV-1 (isolate BG505)). Put plainly: cryo-EM structure.

The substance 4-domain CD4 (receptor) showed a stoichiometry N (molecules per Env) of 3.
